This note sets out measurements from paper PMC10836398, “Structural flexibility of Toscana virus nucleoprotein in the presence of a single-chain camelid antibody” (Acta Crystallographica. Section D, Structural Biology, 2024).

This experiment concerns the target T1, Toscana virus nucleoprotein (Toscana virus, UniProt P21701).
T1 construct: Nucleoprotein (N) of Toscana virus, coded by the S segment; Monomeric fractions of N were pooled for complex formation; also called TOSV N; N protein; source: E. coli, purified under non-denaturing conditions (1 M NaCl and 3 M urea in the lysis buffer to remove nucleic acids)
Description: crystal structure; N–VHH complex at 13 mg/ml, hanging drop, 293 K, 0.5 M MES pH 6.5, 25% PEG 2000; space group P4(1)2(1)2, 3.8 Å. Particulars: both partners purified.

T1 sequence (P21701 2-253): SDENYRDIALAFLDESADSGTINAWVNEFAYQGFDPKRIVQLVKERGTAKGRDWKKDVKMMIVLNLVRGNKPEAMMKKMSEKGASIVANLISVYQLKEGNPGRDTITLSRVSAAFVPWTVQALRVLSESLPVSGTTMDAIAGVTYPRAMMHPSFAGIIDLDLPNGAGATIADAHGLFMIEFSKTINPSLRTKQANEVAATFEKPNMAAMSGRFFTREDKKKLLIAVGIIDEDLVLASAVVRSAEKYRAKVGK

B1: single-chain camelid antibody (VHH) targeting the TOSV N protein (VHH)
VHH: QVQLVESGGGSVQAGGSLRLSCAASGDAGRRYCMAWFRQAPGKEREGVAFISTANGRTDYVDSVKGRFTISQNSAKNTVYLQMNSLKPEDTAMYYCASRGYGYLSCSSYSLAAYNYWGQGTQVTVSS
notes: Selected by phage display from a llama immunised with TOSV N; The clone has no printed name; also called nanobody; source: E. coli WK6, periplasmic extract, purified (IMAC)
For B1, the binding result was “binds”.
